Laboratory results taken from PMC2779587, “Domain Requirements and Sequence Specificity of DNA Binding for the Forkhead Transcription Factor FOXP3”.

How the values were obtained:
[1] = molecular target: T1, FOXP3-ΔN (human, UniProt Q9BZS1 182-431); experiment: EMSA; 12 mM HEPES pH 7.5, 100 mM NaCl, 1 mM DTT, 1 mM EDTA, 12% glycerol, 20 µg/ml poly(dI)-poly(dC), room temperature 20 min; conditions: protein: ivt; chain copies: 2; label: 32P 5' end; blunt
[2] = molecular target: T1, FOXP3-ΔN; experiment: as above; conditions: protein: ivt; chain copies: 2; label: 32P 5' end; blunt; remark: listed apart in the source
[3] = molecular target: FOXP3 full length (human, UniProt Q9BZS1 1-431); experiment: as above; conditions: protein: ivt; chain copies: 2; label: 32P 5' end; blunt
FOXP3 full length, sequence (Q9BZS1 whole entry): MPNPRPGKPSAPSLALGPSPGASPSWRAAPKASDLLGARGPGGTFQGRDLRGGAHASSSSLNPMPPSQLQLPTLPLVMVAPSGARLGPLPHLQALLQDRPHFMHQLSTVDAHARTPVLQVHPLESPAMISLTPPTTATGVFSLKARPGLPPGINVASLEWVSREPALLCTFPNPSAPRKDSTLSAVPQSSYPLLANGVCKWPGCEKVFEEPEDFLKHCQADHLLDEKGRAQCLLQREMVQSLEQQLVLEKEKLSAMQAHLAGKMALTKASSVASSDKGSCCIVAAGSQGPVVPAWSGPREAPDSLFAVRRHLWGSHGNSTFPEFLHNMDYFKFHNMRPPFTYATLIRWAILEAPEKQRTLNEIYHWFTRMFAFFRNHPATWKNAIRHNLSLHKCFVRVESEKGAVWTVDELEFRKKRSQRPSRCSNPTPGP

[4] = molecular target: Foxp1A full length (mouse, UniProt P58462 1-705); experiment: as above; conditions: protein: ivt; tags: HA; chain copies: 2; label: 32P 5' end; blunt
Foxp1A full length, sequence (P58462 whole entry, the tested form may be a part): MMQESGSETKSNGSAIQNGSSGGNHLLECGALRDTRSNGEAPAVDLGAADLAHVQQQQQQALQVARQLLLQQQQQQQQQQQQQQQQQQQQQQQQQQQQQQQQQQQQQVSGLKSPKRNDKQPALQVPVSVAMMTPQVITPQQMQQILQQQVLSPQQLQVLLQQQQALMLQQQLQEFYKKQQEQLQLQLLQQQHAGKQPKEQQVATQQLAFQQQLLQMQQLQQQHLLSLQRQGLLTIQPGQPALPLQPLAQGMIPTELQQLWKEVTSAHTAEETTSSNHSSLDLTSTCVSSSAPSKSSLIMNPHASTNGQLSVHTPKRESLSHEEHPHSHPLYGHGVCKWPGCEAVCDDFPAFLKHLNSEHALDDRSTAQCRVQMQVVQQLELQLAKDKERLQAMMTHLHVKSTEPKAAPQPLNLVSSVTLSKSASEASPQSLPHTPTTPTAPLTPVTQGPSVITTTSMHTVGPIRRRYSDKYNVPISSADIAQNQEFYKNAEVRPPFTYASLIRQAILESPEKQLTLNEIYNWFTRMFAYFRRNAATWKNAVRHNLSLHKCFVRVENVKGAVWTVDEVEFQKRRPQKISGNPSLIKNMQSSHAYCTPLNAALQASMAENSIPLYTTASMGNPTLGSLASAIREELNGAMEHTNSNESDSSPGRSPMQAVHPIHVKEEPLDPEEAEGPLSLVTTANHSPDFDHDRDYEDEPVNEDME

[5] = molecular target: T2, FOXP3 FKH domain (UniProt Q9BZS1 337-423); experiment: as above; conditions: chain copies: 2; label: 32P 5' end; blunt
T2 sequence: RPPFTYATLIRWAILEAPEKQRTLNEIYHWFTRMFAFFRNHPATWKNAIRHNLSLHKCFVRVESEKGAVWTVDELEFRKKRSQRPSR

[6] = molecular target: T1, FOXP3-ΔN; experiment: as above; conditions: protein: ivt; chain copies: 2; label: 32P 5' end; blunt; remark: listed apart in the source
[7] = molecular target: FOXP3-ΔN C204S (human, UniProt Q9BZS1 182-431, C204S); experiment: EMSA; not influenced by mutation; 12 mM HEPES pH 7.5, 100 mM NaCl, 1 mM DTT, 1 mM EDTA, 12% glycerol, 20 µg/ml poly(dI)-poly(dC), room temperature 20 min; conditions: protein: ivt; chain copies: 2; label: 32P 5' end; blunt
FOXP3-ΔN C204S, sequence (Q9BZS1 182-431 C204S): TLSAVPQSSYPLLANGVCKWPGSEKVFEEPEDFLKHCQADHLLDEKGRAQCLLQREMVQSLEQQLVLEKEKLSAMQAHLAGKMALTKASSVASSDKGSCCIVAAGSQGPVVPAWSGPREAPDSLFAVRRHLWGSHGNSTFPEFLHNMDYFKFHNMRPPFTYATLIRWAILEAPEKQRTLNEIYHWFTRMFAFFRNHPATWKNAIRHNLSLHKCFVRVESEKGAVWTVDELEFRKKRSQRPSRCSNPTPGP

[8] = molecular target: FOXP3-ΔN delE251 (human, UniProt Q9BZS1 182-431, del251-251); experiment: EMSA; 12 mM HEPES pH 7.5, 100 mM NaCl, 1 mM DTT, 1 mM EDTA, 12% glycerol, 20 µg/ml poly(dI)-poly(dC), room temperature 20 min; conditions: protein: ivt; chain copies: 2; label: 32P 5' end; blunt
FOXP3-ΔN delE251, sequence (Q9BZS1 other isoform, or with tags, fused parts or gaps del251-251 | mutant): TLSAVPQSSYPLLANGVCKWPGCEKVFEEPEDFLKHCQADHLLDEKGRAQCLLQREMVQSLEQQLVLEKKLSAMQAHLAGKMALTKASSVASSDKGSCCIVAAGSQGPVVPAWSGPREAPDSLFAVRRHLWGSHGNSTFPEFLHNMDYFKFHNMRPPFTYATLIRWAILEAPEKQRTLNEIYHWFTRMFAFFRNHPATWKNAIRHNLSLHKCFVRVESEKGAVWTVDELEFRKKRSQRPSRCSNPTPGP

[9] = molecular target: FOXP3-ΔN ΔFKH (human, UniProt Q9BZS1 182-336); experiment: as above; conditions: protein: ivt; label: 32P 5' end; blunt
FOXP3-ΔN ΔFKH, sequence (Q9BZS1 182-336, stated change not applied): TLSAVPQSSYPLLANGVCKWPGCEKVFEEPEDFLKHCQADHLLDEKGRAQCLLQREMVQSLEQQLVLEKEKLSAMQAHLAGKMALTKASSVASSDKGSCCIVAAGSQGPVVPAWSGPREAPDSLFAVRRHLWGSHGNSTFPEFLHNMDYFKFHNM

[10] = molecular target: FOXP3-ΔN delK250 (human, UniProt Q9BZS1 182-431, del250-250); experiment: as above; conditions: protein: ivt; chain copies: 2; label: 32P 5' end; blunt
FOXP3-ΔN delK250, sequence (Q9BZS1 other isoform, or with tags, fused parts or gaps del250-250 | mutant): as the sequence (Q9BZS1 other isoform, or with tags, fused parts or gaps del251-251 | mutant) above, with K69E counted along it

[11] = molecular target: T1, FOXP3-ΔN; experiment: EMSA; binding more than doubled; 12 mM HEPES pH 7.5, 100 mM NaCl, 1 mM DTT, 1 mM EDTA, 12% glycerol, 20 µg/ml poly(dI)-poly(dC), room temperature 20 min; conditions: protein: ivt; chain copies: 2; label: 32P 5' end; blunt

T1 sequence (Q9BZS1 182-431, stated change not applied): as the sequence (Q9BZS1 182-431 C204S) above, with S23C counted along it

B1: A' (35 bp), 20-bp spacing (dsDNA)
DNA 1: CAAGGTAAACAAGACAACACGATTGTAAACAAGTC
DNA 2: GACTTGTTTACAATCGTGTTGTCTTGTTTACCTTG
- binding signal [1]: ~3 fold versus 14-bp spacing

B2: A'' (A2-A2) (dsDNA)
DNA 1: CAAGACAAATAAGACAACACAAATAA
DNA 2: TTATTTGTGTTGTCTTATTTGTCTTG
- binding result [2]: no binding
- binding result [3]: no binding

B3: A' (25 bp), 10-bp spacing (dsDNA)
DNA 1: CAAGGTAAACAAGAGTAAACAAGTC
DNA 2: GACTTGTTTACTCTTGTTTACCTTG
- binding signal [1]: ~3 fold versus 14-bp spacing

B4: A' (GC) (dsDNA)
DNA 1: CAAGGCAAACAAGACAACGCAAACAA
DNA 2: TTGTTTGCGTTGTCTTGTTTGCCTTG
- binding result [2]: no binding

B5: A (A1-A2) (dsDNA)
DNA 1: CAAGGTAAACAAGACAACACAAATAA
DNA 2: TTATTTGTGTTGTCTTGTTTACCTTG
- binding result [4]: binds
- binding result [5]: no binding
- binding result [3]: no binding

B6: A' (AT) (dsDNA)
DNA 1: CAAGATAAACAAGACAACATAAACAA
DNA 2: TTGTTTATGTTGTCTTGTTTATCTTG
- binding signal [6]: < 0.5 fold versus A' (GT)

B7: A' (A1-A1) (dsDNA)
DNA 1: CAAGGTAAACAAGACAACGTAAACAA
DNA 2: TTGTTTACGTTGTCTTGTTTACCTTG
- binding result [7]: binds
- binding result [8]: no binding
- binding result [9]: no binding
- binding result [10]: no binding
- binding result [3]: no binding
- binding signal [11]: > 2 fold versus A probe
